Measured values: publication PMC4709948

Target: GST-fused PRAK protein (UniProt Q8IW41)
Assay: SPR; GST-fused PRAK captured by anti-GST antibodies on a CM5 chip; RAGE C-terminal region as analyte, 0 to 40 uM, HBS-EP buffer pH 7.4, 30 uL/min; Biacore X-100

UniProt Q8IW41, sequence (Q8IW41 whole entry, the tested form may be a part): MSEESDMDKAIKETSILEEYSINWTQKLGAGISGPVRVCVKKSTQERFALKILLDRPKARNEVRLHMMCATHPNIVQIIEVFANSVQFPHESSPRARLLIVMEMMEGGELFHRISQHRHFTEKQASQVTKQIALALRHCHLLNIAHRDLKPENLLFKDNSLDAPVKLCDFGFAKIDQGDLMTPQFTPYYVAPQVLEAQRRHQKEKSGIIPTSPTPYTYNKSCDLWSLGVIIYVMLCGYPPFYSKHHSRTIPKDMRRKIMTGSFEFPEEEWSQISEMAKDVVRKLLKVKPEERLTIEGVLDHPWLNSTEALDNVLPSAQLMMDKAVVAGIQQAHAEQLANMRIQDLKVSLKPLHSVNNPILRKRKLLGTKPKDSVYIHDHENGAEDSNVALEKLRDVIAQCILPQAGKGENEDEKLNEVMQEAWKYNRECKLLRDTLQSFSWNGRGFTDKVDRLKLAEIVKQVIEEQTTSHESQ

Work on “RAGE C-terminal region, SPR analyte (domain or fragment)” yielded a Kd of 0.509 nM.
